Measurements taken from patent US6200577A, “Anti-herpesviral agents and assays therefor” (priority 1996, dated 2001).

Experiments:
[1] = target: T1, VP16/VP22trunc interaction (Human herpesvirus 1, UniProt P06492); test: Co-purification of VP16 with VP22trunc on Ni-NTA resin in presence of peptides; format: binding, HSV-1; details: for Co-elution of VP16 with VP22trunc from Ni-NTA resin after incubation with peptide: crude peptide at 2 mg/ml (about 1 mM), equal volume mixed with partially purified VP16 extract before VP22trunc; for Inhibition of VP16 co-elution with VP22trunc, peptides purified to homogeneity: peptides purified by reverse phase HPLC, data not shown
T1 construct: Plasmid pETVP16 was used to express full-length VP16 under the control of the T7 RNA polymerase promoter; made in house; host or cells: E. coli BL21(DE3)
Procedure: FIG. 4 Co-elution of VP16 with VP22trunc from Ni-NTA resin. Partially purified extract containing VP16 was incubated in the absence of (lane 14) or presence of […] of VP22trunc (lanes 3 to 13). In lanes 3 to 12, an equal volume of the individual peptides at 2 mg/ml was added to the extract prior to VP22trunc. Peptides added to each reaction were as follows: lane 3, peptide A; lane 4, peptide B; lane 5, peptide C; lane 6, peptide D; lane 7, peptide E; lane 8, peptide F; lane 9, peptide G; lane 10, peptide H; lane 11, peptide I; lane 12, peptide J; lane 13, no peptide. Lanes 3 to 14 show the polypeptides eluted from Ni-NTA resin. Other samples were as follows: lane 1, partially purified VP16 extract, lane 2, purified VP16; lane 15, purified VP22trunc. Samples were electrophoresed on a 12% polyacrylamide gel and the apparent molecular weights of VP16 (65 KDa) and VP22trunc (16 KDa) are shown.
Co-purification of VP16 with VP22trunc on Ni-NTA Resin. Purified VP22trunc and a partially purified extract containing VP16, both in 20 mM Tris-HCl, pH8.0, 250 mM NaCl, were mixed at 4° C. for 15 to 30 minutes on a rotator. 50 μl of equilibrated Ni-NTA resin was added to each mixture and incubation was continued at 40C for a further 15 to 30 minutes. Resin was pelleted at 800 g for 1 minute and the supernatant (non-bound fraction) was removed. Resin was washed sequentially with 0.5 ml of 20 mM Tris-HCl, pH 8.0, 250 mM NaCl, 5 mM imidazole (twice) and 0.5 ml of 20 mM Tris-HCl, pH 8.0, 250 mM NaCl, 60 mM imidazole (four times). Bound protein was eluted by addition of 50 μl of boiling mix (160 mM Tris-HCl, pH 6.7, 2% SDS, 700 mM β-mercaptoethanol, 10% glycerol, 0.002% bromophenol blue) followed by heating to 100° C. for 5 minutes. For peptide studies, peptides were dissolved in 20 mM Tris-HCl, pH8.0, 250 mM NaCl at a concentration of 2 mg/ml. Incubation of peptides with partially purified VP16 extracts was performed at ambient temperature for 2 hours prior to the addition of VP22trunc. Samples were electrophoresed on denaturing polyacrylamide gels.
Results presented in Section 2(i) had shown that VP16 co-elutes from Ni-NTA resin in the presence of VP22trunc and it was concluded that this indicated interaction between these polypeptides. The ability of synthetic peptides to inhibit this interaction was analysed by mixing them individually with the partially purified VP16 extract prior to addition of VP22trunc. From the intensity of the 65 KDa species in the crude extract (FIG. 4, lane 2), it was estimated that the concentration of VP16 was approximately […]. To ensure that experiments were performed in an excess of peptide, peptides were prepared at a concentration of 2 mg/ml (about 1 mM) and equal volumes of peptide and extract were mixed. This gave a relative molar ratio of VP16 to peptide of 1:300. However, it should be noted that certain peptides were not completely soluble (Table 1) and in those cases, the ratio would be reduced.

[2] = target: T1, VP16/VP22trunc interaction; test: Far Western analysis of peptides blocking VP16 binding to immobilised VP22trunc; design: species or system HSV-1; details: for Blocking of VP16 binding to immobilised VP22trunc (Far Western), crude peptides: strips pre-incubated with 1 mg of crude peptide, FIG. 7A; for Blocking of VP16 binding to immobilised VP22trunc (Far Western), repeat with purified peptides D and E: strips pre-incubated with 1 mg peptide, FIG. 7B
Procedure: FIG. 7 Far Western analysis of the ability of peptides to block the interaction between VP16 and immobilised VP22trunc. Purified VP22trunc was added to partially purified extract of VP16 and the sample run on a 12% polyacrylamide gel. Proteins were then transferred to nitrocellulose membrane and the blot was cut into strips, with each strip containing approximately 1 g of VP22trunc. In (A), strips were pre-incubated with 1 mg of each of the following peptides: lane 2, no peptide, lane 3, peptide C; lane 4, peptide D; lane 5, peptide E; lane 6, peptide F; lane 7, peptides D and E; lane 8, peptides C and F. In (B) strips were pre-incubated with 1 mg of each of the following peptides: lane 2, no peptide, lane 3, peptide C; lane 4, purified peptide D; lane 5, purified peptide E; lane 6, peptide F. 24 g of pure VP16 was then added to strips 2 to 8 in (A) and strips 2 to 6 in (B), followed by incubation with LP1 antibody (1:1000 dilution). As a control, portions of the blot were incubated with LP1 or the 9220 antibody at a dilution of 1:1000 (lane 1 for LP1 in A and B; lane 9 in A and lane 7 in B for 9220). The apparent molecular weights of VP16 (65 KDa) and the dimer (32 KDa) and monomer (16 KDa) forms of VP22trunc are shown.
Following electrophoresis, proteins were electrotransferred to either Hybond or ProBlott (Applied Biosystems) membrane and the membrane was incubated in renaturation buffer (50 mM Tris-HCl, pH 8.0, 150 mM NaCl, 10% glycerol, 1 mM DTT) at 4° C. for 5-6 hours.
For membranes probed with either VP16 or VP22trunc, blocking was performed overnight as described for Western blot analysis. Probing with epitope-tagged VP22 or VP16 was performed in 20 mM Tris-HCl, pH 8.0, 250 mM NaCl for 1.5 hours at ambient temperature. Excess probe was removed by washing 4 times (10 minutes per wash) in 20 mM Tris-HCl, pH8.0, 250 mM NaCl, followed by incubation with the appropriate antibody at a dilution of 1:1000 in TTBS/1% gelatin for 1.5-2 hours. Bound antibody was detected as described for Western blot analysis.
Based on the studies with soluble VP16 and VP22trunc presented above, only a restricted number of peptides were examined by Far Western analysis to identify those that may prevent binding of VP16. Thus, VP22trunc was added to a crude extract of bacterially expressed VP16 and the proteins were electrophoresed on a polyacrylamide gel followed by transfer to a membrane. […] Before the addition of VP16 the blot strips in lanes 3 to 8 were incubated with crude preparations of peptides C, D, E, or E' as well as mixtures of either 0 and E or C and F. When the blot strips were incubated with peptides C and F either singly or in combination, VP16 bindincg to VP22trunc was not prevented (FIG. 7A, lanes 3, 6 and 8).

T1 sequence (P06492 whole entry): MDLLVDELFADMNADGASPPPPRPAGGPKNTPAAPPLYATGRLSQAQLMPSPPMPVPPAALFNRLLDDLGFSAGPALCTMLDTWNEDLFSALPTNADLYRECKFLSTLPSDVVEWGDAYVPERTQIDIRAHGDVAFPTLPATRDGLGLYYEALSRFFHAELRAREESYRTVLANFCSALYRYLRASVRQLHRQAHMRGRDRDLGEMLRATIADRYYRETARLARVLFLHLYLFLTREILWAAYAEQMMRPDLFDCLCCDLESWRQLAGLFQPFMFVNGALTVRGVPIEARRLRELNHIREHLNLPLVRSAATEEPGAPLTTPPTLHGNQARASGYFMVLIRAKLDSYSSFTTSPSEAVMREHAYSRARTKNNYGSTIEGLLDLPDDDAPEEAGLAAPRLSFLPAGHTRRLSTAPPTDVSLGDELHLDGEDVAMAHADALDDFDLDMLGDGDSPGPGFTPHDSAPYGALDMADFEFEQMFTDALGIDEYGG

Which “Co-elution of VP16 with VP22trunc from Ni-NTA resin after incubation with peptide” value [1] does the source give for TPRVAGFNKRVFCAAVGRLA [Peptide D] here?
The value was “reduced amounts”.

What about the “Inhibition of VP16 co-elution with VP22trunc, peptides purified to homogeneity” value [1] of the same sequence?
The value was “inhibitory capabilities were retained”.

What about the “Blocking of VP16 binding to immobilised VP22trunc (Far Western), crude peptides” value [2] of the same sequence?
Its value is “loss of recognition of VP22trunc”.

And the “Blocking of VP16 binding to immobilised VP22trunc (Far Western), repeat with purified peptides D and E” value [2]?
Its value is “able to block binding of VP16 to VP22trunc”.

FSTAPPNPDAPWTPRVAGFN [Peptide C] was tested. Which “Blocking of VP16 binding to immobilised VP22trunc (Far Western), crude peptides” value [2] did it give?
Its value is “not prevented”.

What about the “Blocking of VP16 binding to immobilised VP22trunc (Far Western), repeat with purified peptides D and E” value [2] of the same sequence?
The value was “had no effect”.

Which results are given for CAAVGRLAAMHARMAAVQLW [Peptide E]?
Co-elution of VP16 with VP22trunc from Ni-NTA resin after incubation with peptide [1]: failed to co-elute; Inhibition of VP16 co-elution with VP22trunc, peptides purified to homogeneity [1]: inhibitory capabilities were retained; Blocking of VP16 binding to immobilised VP22trunc (Far Western), crude peptides [2]: loss of recognition of VP22trunc; Blocking of VP16 binding to immobilised VP22trunc (Far Western), repeat with purified peptides D and E [2]: able to block binding of VP16 to VP22trunc
